In the supplement of paper PMC12042874:
± gives the uncertainty stated by the source.

Test: amyloid nucleation score (Sup35N fusion, yeast selection) (log enrichment); library NNK1; higher = more nucleation; inactive = no reads after selection
Summary of the method: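 The nucleation score, computed with DiMSum, is the log enrichment of output over input reads, centred on the mode score of non-aggregating sequences. Sequences with under 100 input reads were dropped. Reads were generated by Illumina sequencing of plasmid inserts from psi-negative yeast with Sup35N fused to peptides of 20 random codons, induced with 100 μM copper sulfate for 24 hours and grown 7 days at 30°C on medium lacking adenine and uracil.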

Substance | amyloid nucleation score
TRRFR | -0.181 ± 0.41
KKKRRLSSWYSHPVPSSGLL | 0.488 ± 1
YSVLVPIPLSCCISDVLYCT | 5.61 ± 0.064
CKFIFRKIVVGFCFDQQ | 3.67 ± 0.1
PETIW | 1.49 ± 0.5
LRHFSRSF | 0.16 ± 0.29
PLFLYRFCKMVPVCILRIGW | 0.415 ± 0.3
RCTLISRHDWGYANWMRLLL | 4.81 ± 0.077
SYLMY | -0.533 ± 0.9
QAFFVFC | 1.3 ± 0.36
MLLPSYVEF | 1.46 ± 0.34
YRWSLTLNLL | -0.651 ± 0.47
SRCNHICHNYISMFLINCEL | 5.71 ± 0.061
SLWNDFHMVAVYLVTLSSVD | 0.895 ± 0.79
RFYMCRLEGVPFES | 0.58 ± 0.79
IWHFASCAYGGVGSKGDPSD | 0.67 ± 0.69
NLWGSFTCYLFVIGNHWFGI | 6.96 ± 0.084
VWSILCMCNRSHLWVKSSKR | 0.988 ± 0.35
LGHGLDRMKLRTECNCTVVD | -0.503 ± 0.3
YTNLAT | 0.251 ± 0.5
NVGVRLMCVSWSVHDQLA | 1.66 ± 0.35
AYINSSDSRSDMSRNWY | 0.47 ± 1.1
RDSRDLMCFVRLPLDRISK | -0.101 ± 0.39
GLGYPSVFSEHCVGLRDCEL | -0.189 ± 1.7
LGGFYTRRCVCSLGTRQERE | -0.072 ± 0.49

Substance | amyloid nucleation score
CRSSVLRSVCINNLSKCSLV | inactive
VYSRSWPGFLKWLLASIFF | 0.694 ± 1.2
CGIVFCSSFMDIFGPFDQTH | 8.373 ± 0.056
SLLCCVLVFSFCFSPFRSSE | 1.52 ± 0.16
DLRSSGFDTELILQVSVQLL | -0.264 ± 0.59
LRVMKKRLVDATHNFVPVAN | 4.33 ± 0.075
AKGYSYCKLI | -0.804 ± 0.3
DSEKGSVLYLVMRGMNCVSI | 4.69 ± 0.052
EDLRLGSSYYEMANEASYGT | 1.82 ± 0.11
LAYRR | 0.274 ± 0.63
NNPEINFYKVWAIKSYF | 2.83 ± 0.13
GVATPPLRANSLEG | inactive
SRYSNDLSDIMGDDESRSAH | 0.136 ± 0.28
RRWGLFDIFKMPKELNMLHW | 0.915 ± 1.1
YWYFYISDRVKDNSCSNWSL | -1.03 ± 0.47
LKTWVDFRDYLLAPKAVCIY | 0.161 ± 0.57
TLNGFPLSISTANCEVRYDK | 0.005 ± 0.9
KEDAIIWVYNKSVSMRIFVQ | -0.104 ± 0.46
HLLALFTSFVTITPW | -0.986 ± 0.88
ILNFRERL | -1.06 ± 0.43
NRPGEINKWSTLIDGVTRFS | 0.335 ± 0.41
SRLMLFQIFDAKQIDVNDM | 5.03 ± 0.071
RFNTEKRLALNNNMPLRWFS | -0.125 ± 1.7
SKSDQSWYFL | -0.227 ± 0.68
PVVDKLSDVHVM | -0.262 ± 0.31

Substance | amyloid nucleation score
KISYADF | 0.646 ± 1.1
LSGERNVMCSVWACLGRDYR | 8.102 ± 0.047
STYYVVRDFFLDSSTGTVYS | -0.031 ± 0.61
ISGFRKLVMVREVP | -0.606 ± 1.4
VCSQHGGWISGGKGSILARS | -0.417 ± 0.99
PGRIYGRSGCYRV | 0.482 ± 0.69
SRHVLLPISFGTV | 0.377 ± 0.61
KAIRMLFSVMIVKR | inactive
TVNSWRNLMSDLSWFSAVIL | -0.657 ± 0.39
LIISFVIVSRMLSVRFSTIV | 0.262 ± 0.61
SYMFWIPLATQWKRVLNRVW | -0.479 ± 0.54
DDQKIRRY | 0.602 ± 0.34
CSHANETW | 0.593 ± 0.55
RCLEGLSIMLNDFLPPCGP | -0.224 ± 0.71
MRPVGTRFSSIP | -0.201 ± 0.55
LHRIVTVNIP | 1.23 ± 0.8
GMTLMVAEFGLIRLVNTLAI | 0.785 ± 0.49
RLGAGCSPSLVLS | 0.197 ± 0.56
LVLSVFWRNVVWAINLAVVS | -0.521 ± 0.31
NFTTVAVLRFNDNGR | 4.43 ± 0.066
ALKWSTLLTLFLGYSHIVSM | 1.46 ± 0.38
LKRMFFSNVLFFGSMIAGNR | 0.162 ± 0.59
RSSKYVNHASQKNAHLRGCS | 0.641 ± 0.7
YWPGLGFMFDNYSI | 0.555 ± 0.71
CSENT | -0.875 ± 0.52

Substance | amyloid nucleation score
LMPPSG | 0.072 ± 0.69
LLDKTTVKVILCLFNDTINL | 7.855 ± 0.043
MKQALMGVVMIHWGGRSRV | 0.687 ± 0.54
VDYSLSENSTVLLNIWDL | -0.008 ± 0.46
ASRSSIPSG | -0.038 ± 1
SHMDHGRQRWCSN | 0.83 ± 0.88
HCLSNCSSRVGGFSFNAPVA | 0.5 ± 0.45
AVMPHCSCTRNQRFRLVSMH | 0.707 ± 0.85
VMILNLIVDTRLRVSRHLHV | 2.88 ± 0.28
GEIEHHLRYVQCYFRRAVRL | 0.319 ± 0.33
ILRTFVSSCVDVGTYSTTKC | -1.52 ± 2.4
TYQRRL | -0.414 ± 1.1
VFSKNFRVVIFTSNRSLFNK | 0.595 ± 0.72
RIVYLCSSGCVRKCWLLCSG | 2.29 ± 0.24
PLLERHVAGLCGFFF | -0.908 ± 1.2
LSSTLCSIVF | 0.051 ± 0.57
QGGRVDGSPPTVYA | 0.555 ± 0.46
VRSFNRGFKMHTYIPTHFLW | -0.55 ± 0.26
TQVWKPLHKTSLHYSDREVS | -0.111 ± 0.38
AGLWTLRQMWWFTWGSIDII | inactive
RWGLRQIMVVENFIHRWVCP | 1.04 ± 0.79
HCVRQTSWMLAENLAWEVWL | 1.1 ± 0.58
VWEFD | -0.537 ± 0.42
NRDYTVFKTRVFKSIFRIR | 0.505 ± 0.78
MHRSFFHVM | 2.33 ± 0.52

Substance | amyloid nucleation score
HNLLM | inactive
KKVINPYFFGCTGCNNTQRK | -0.149 ± 0.31
LLHCKVICRRCCVIWSSCSI | 2.09 ± 0.46
RSSCL | -2.09 ± 2.4
CPRVKAHVRKNVFFSLVMSL | 0.296 ± 0.44
GFFLI | -0.007 ± 0.21
PVLWT | -0.002 ± 0.53
YSGNSIFLNLRSSCAYCGGD | 6.35 ± 0.081
RSRIYCGFNRPTCEGFSRLS | 2.63 ± 0.11
VKLLYVIISYVRVCCRMDQI | -0.501 ± 0.54
LCLLIDNTYIVDVFFYVLSQ | 1.49 ± 0.32
DDKSFQ | 0.614 ± 0.37
HCYRITYKRSNRDVL | 1.76 ± 0.36
MDAFTNAWVMGWCMLHCARG | 0.524 ± 0.7
SASSMVFNTTSPT | -0.404 ± 0.51
YNYREWFSLIYFCIWDITWS | -1.01 ± 0.41
SQRSMRRRRVRVIKDARYNW | 0.224 ± 0.48
GASAEEIYCQP | -0.513 ± 0.34
VSDHT | 1.02 ± 0.47
FESTNVLPISGTSAGSV | 1.18 ± 0.74
MTLRLS | 0.375 ± 0.41
KHDIIESQPQVVHNNRCVWL | inactive
LFSNTNK | inactive
VLSSDGGGFVYFRYSGYTCR | 0.253 ± 0.67
GFLDVALTLSWANHRGDSSV | 3.04 ± 0.13

Substance | amyloid nucleation score
MVGSAVVFVLENLGVTGSWG | 0.072 ± 0.84
TRSDQPTILTSLYLERNYSP | -0.321 ± 0.56
RIASSRVFFAFFRSLYMSGW | 0.995 ± 0.47
IVGFHGSNFYSDVSVIGQML | inactive
IRLKYSGHAILFHETKNKHA | 0.511 ± 0.42
GGRLRW | 0.452 ± 0.48
SVTLCKFRKT | -0.197 ± 0.37
LSTKKTQTMRRVW | 0.404 ± 0.44
IYNFSKYPVFGKTRALGFNF | -0.395 ± 0.67
PRRSY | 1.41 ± 0.84
LMDNCVRR | -1.06 ± 1.9
NLYPDLGVLVGCHSDKWSNL | -0.115 ± 1.3
STALLS | 0.21 ± 0.74
SVWCGSWVYNTLRLNMGTNL | 3.01 ± 0.15
VDLIPLEGVRGAWLQASQRG | 0.664 ± 0.49
KVRHNVVLG | -1.19 ± 0.66
VTQSYDFKSLQIISIQN | 1.39 ± 0.12
LHSIDVDIDVEFLSTHRDGP | inactive
IDEYTDMN | 0.146 ± 0.42
KIPKSVYVLTSIEGSAFNIK | -0.234 ± 1.6
HVMTFEVSFRTGCKDVINWV | 1.03 ± 0.18
LVVYRSKQRSYCCM | -0.359 ± 1.9
IRIKDTFESWYSLINEDLGH | inactive
GYRCSWNDPMVNTVFFV | 0.98 ± 0.56
ECYLV | -0.663 ± 0.8

Substance | amyloid nucleation score
IILRFVCDI | inactive
AVCIMFRVNRFIRIVNTGGC | 0.042 ± 0.58
SEAVCVRVQLAWDRLMGVRV | 0.966 ± 0.64
CVLCKQRFTILMQRWLVRK | 0.961 ± 0.61
GNALRMVWERTQGTLPEYRR | 0.219 ± 0.59
QGSVSRCISEALTVRCYRTG | inactive
AFIFMSTATDDLFFAINL | -0.139 ± 0.35
IRKIS | -1.13 ± 1.7
RGTDLSSYTSFVC | 0.28 ± 0.41
LGPNFGTKFNMGCY | -0.304 ± 0.24
GSQSEVVCGW | 1.14 ± 0.74
SEGIPPQFFRYTAGASNLDT | 0.306 ± 0.64
TASNHVVLSHPDSGILGIRA | -0.278 ± 0.42
FTRTLMLMIRACCWHRFQLT | 0.008 ± 0.91
VDFDPNVLFKWTDMKRSRSR | 1.66 ± 0.48
CMAFVFKTCFVFRCNVGKCA | 0.527 ± 0.28
YFQFRDGIFIFYVTF | 0.415 ± 0.64
VECLKV | 0.387 ± 0.52
NVYSIYIINYMAYKVFWDMI | -0.116 ± 0.29
FAQECLFMSVDLCLR | 0.125 ± 1.1
DFYADIASVMSVPILCSLLG | inactive
STDVFYLV | -0.669 ± 0.39
VIIRIIKFTCNSSLIIITKW | 0.694 ± 0.49
KCIYTEKEMGLSAFTLRLYI | 6.286 ± 0.058
VTQIKPVRRLGGL | -0.692 ± 0.87
